Where two headings read alike, the source gives them in different places. Values belong to the binder of their own block, whether it stands above or below them.
Assays:
[1] = molecular target: T1, human BCMA peptide 30SNTPPLTCQR39 (human); test: CLIPS peptide array ELISA
T1 construct: Peptide of the CLIPS array; could be recognized in a linear form
T1 peptide: SNTPPLTCQR
Method: (§1) Epitopes recognized, e.g., specifically bound to, by exemplary anti-BCMA scFv clones (BCMA-1, BCMA-5, BCMA-9, BCMA-23, BCMA-25, BCMA-26, BCMA-52 and BCMA-55 anti-BCMA scFvs), were assessed using full discontinuous epitope mapping by Chemical Linkage of Peptides onto Scaffolds (CLIPS; Pepscan Presto BV, Lelystad, The Netherlands; see, e.g., Timmerman et al., (2007) J. Mol. Recognit. 20: 283-329). Mapping was carried out using anti-BCMA scFv clones, such as those fused with mouse Fc (scFv-mFc).
(§2) Linear and conformational peptide libraries of amino acid residues 1-54 of human BCMA (set forth as amino acid residues 1-54 of SEQ ID NO:164) were generated based on a combinatorial matrix design. Linear peptides and structural mimetics including single loop, α-helix, β-turn, combinatorial and linear disulfide bridge mimics, and discontinuous epitope mimics were used, along with positive and negative control peptides, on an amino-functionalized solid support.
(§3) Affinities for binding to the peptides in the epitope library were determined using ELISA. The peptide arrays were incubated with a solution containing the scFv overnight at 4° C. Affinity information was used in iterative screens to define the sequence and conformation of epitopes. Heat maps of affinity information for two or more loops were generated.

[2] = molecular target: T2, human BCMA amino acid residues 1-54 (linear and conformational CLIPS peptide libraries) (human); test: CLIPS peptide array ELISA
T2 construct: Not one polypeptide in the assay: arrays of linear peptides and structural mimetics that cover residues 1-54
T2 chain: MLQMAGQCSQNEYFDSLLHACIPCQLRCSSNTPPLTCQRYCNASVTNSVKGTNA
Method: as §1, §2, §3

[3] = molecular target: T3, recombinant human BCMA-hFc (soluble human BCMA fused at its C-terminus to an Fc region of IgG) (human, UniProt Q02223 1-54, limits assumed, biotinylated in the KinExA experiment of p-1044 (site not stated)); test: Biacore-based assay; scFv-Fc and recombinant human BCMA fusion protein; scFv-Fc fusion, Biacore-based assay
T3 construct: also called rhBCMA hFc; BCMA-Fc; not shown: Fc region of IgG (hFc)
T3 sequence (looked up): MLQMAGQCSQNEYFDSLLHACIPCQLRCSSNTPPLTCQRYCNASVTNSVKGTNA

[4] = molecular target: T4, cynoBCMA coated on 96-well flat-bottom plates (cynomolgus monkey); test: cell-based or functional assay
T4 sequence (chain, as listed by the source): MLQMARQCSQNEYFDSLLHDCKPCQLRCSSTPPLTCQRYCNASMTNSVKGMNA

[5] = molecular target: T3, recombinant human BCMA-hFc (soluble …); test: kinetics exclusion assay; CAR expressed in a Jurkat T cell line, soluble rhBCMA hFc; CAR on Jurkat cells, kinetics exclusion assay
[6] = molecular target: T4, cynoBCMA coated on 96-well flat-bottom …; test: cell-based or functional assay; remark: listed apart in the source
[7] = molecular target: T3, recombinant human BCMA-hFc (soluble …); test: cell-based or functional assay
[8] = molecular target: T3, recombinant human BCMA-hFc (soluble …); test: KinExA kinetic exclusion analysis; serially diluted CAR-expressing Jurkat cells equilibrated with 20 nM or 1 nM biotinylated rhBCMA hFc
Method: In a further experiment, Jurkat cells were transduced with a polynucleotide encoding a CAR with a BCMA-55-derived scFv binding domain and were cultured to a density of ˜2×10⁶. The cells were harvested and spun at 1500 g for 15 minutes at 4° C. The cell pellet was washed and cells were resuspended and serially diluted in 20 nM or 1 nM biotinylated rhBCMA hFc (also referred to in this assay as the constant binding partner (CBP). After equilibration, cells were spun down and supernatants were harvested for KinExa kinetic exclusion analysis. Briefly, supernatants from equilibrated BCMA-55-LS CAR O/SSE-expressing Jurkat cells containing rhBCMA hFc were flowed over a streptavidin bead flow cell to capture free biotinylated rhBCMA hFc. The rhBCMA was then detected using a secondary anti-hBCMA antibody that was fluorescently labelled. The […] of the detected rhBCMA hFc was recorded for each sample, and plotted against the number of cells in each dilution (Darling (2004) Assay Drug. Dev., 2:647-657).

- binding result [1]: binds
B1: BCMA-25 anti-BCMA scFv (scFv)
scFv: EVQLVQSGGGLVQPGRSLRLSCTASGFTFGDYAMSWFRQAPGKGLEWVGFIRSKAYGGTTEYAASVKGRFTISRDDSKSIAYLQMNSLKTEDTAVYYCAAWSAPTDYWGQGTLVTVSSGGGGSGGGGSGGGGSDIQMTQSPAFLSASVGDRVTVTCRASQGISNYLAWYQQKPGNAPRLLIYSASTLQSGVPSRFRGTGYGTEFSLTIDSLQPEDFATYYCQQSYTSRQTFGPGTRLDIK

- binding result [1]: binds
B2: BCMA-23 anti-BCMA scFv (scFv)
scFv: EVQLVESGGGLVKPGGSLRLSCAASGFTFSDYYMSWIRQAPGKGLEWVSYISSSGSTIYYADSVKGRFTISRDNAKNSLYLQMNSLRAEDTAVYYCAKVDGDYTEDYWGQGTLVTVSSGGGGSGGGGSGGGGSQSALTQPASVSGSPGQSITISCTGSSSDVGKYNLVSWYQQPPGKAPKLIIYDVNKRPSGVSNRFSGSKSGNTATLTISGLQGDDEADYYCSSYGGSRSYVFGTGTKVTVL

- binding result [2]: binds
B3: BCMA-52-scFv-mFc (Fc fusion, not shown: a dimerising Fc or GST)
chain: SYELTQPPSASGTPGQRVTMSCSGTSSNIGSHSVNWYQQLPGTAPKLLIYTNNQRPSGVPDRFSGSKSGTSASLAISGLQSEDEADYYCAAWDGSLNGLVFGGGTKLTVLGSRGGGGSGGGGSGGGGSLEMAEVQLVQSGAEVKKPGESLKISCKGSGYSFTSYWIGWVRQMPGKGLEWMGIIYPGDSDTRYSPSFQGHVTISADKSISTAYLQWSSLKASDTAMYYCARYSGSFDNWGQGTLVTVSS

- binding result [2]: binds
B4: BCMA-55-scFv-mFc (Fc fusion, not shown: a dimerising Fc or GST)
chain: QSALTQPASVSASPGQSIAISCTGTSSDVGWYQQHPGKAPKLMIYEDSKRPSGVSNRFSGSKSGNTASLTISGLQAEDEADYYCSSNTRSSTLVFGGGTKLTVLGSRGGGGSGGGGSGGGGSLEMAEVQLVQSGAEMKKPGASLKLSCKASGYTFIDYYVYWMRQAPGQGLESMGWINPNSGGTNYAQKFQGRVTMTRDTSISTAYMELSRLRSDDTAMYYCARSQRDGYMDYWGQGTLVTVSS

- Kd [3]: ~10 nM
B5: BCMA-55 scFv-Fc fusion protein (Fc fusion)
chain: QSALTQPASVSASPGQSIAISCTGTSSDVGWYQQHPGKAPKLMIYEDSKRPSGVSNRFSGSKSGNTASLTISGLQAEDEADYYCSSNTRSSTLVFGGGTKLTVLGSRGGGGSGGGGSGGGGSLEMAEVQLVQSGAEMKKPGASLKLSCKASGYTFIDYYVYWMRQAPGQGLESMGWINPNSGGTNYAQKFQGRVTMTRDTSISTAYMELSRLRSDDTAMYYCARSQRDGYMDYWGQGTLVTVSS
notes: Fc fusion protein containing the scFv portion of the BCMA-55 CAR; also called BCMA-55-Fc; not shown: Fc region

- EC50 (read off the curve) [4]: ~0.9 µg/mL
- Kd [5]: ~1 nM
- EC50 (read off the curve) [6]: ~1 µg/mL
- EC50 (read off the curve) [7]: ~0.2 µg/mL
- Kd [8]: ~1.46 nM
B6: BCMA-55-LS-O/SSE CAR (other)
chain: QSALTQPASVSASPGQSIAISCTGTSSDVGWYQQHPGKAPKLMIYEDSKRPSGVSNRFSGSKSGNTASLTISGLQAEDEADYYCSSNTRSSTLVFGGGTKLTVLGSRGGGGSGGGGSGGGGSLEMAEVQLVQSGAEMKKPGASLKLSCKASGYTFIDYYVYWMRQAPGQGLESMGWINPNSGGTNYAQKFQGRVTMTRDTSISTAYMELSRLRSDDTAMYYCARSQRDGYMDYWGQGTLVTVSSESKYGPPCPPCPAPPVAGPSVFLFPPKPKDTLMISRTPEVTCVVVDVSQEDPEVQFNWYVDGVEVHNAKTKPREEQFQSTYRVVSVLTVLHQDWLNGKEYKCKVSNKGLPSSIEKTISKAKGQPREPQVYTLPPSQEEMTKNQVSLTCLVKGFYPSDIAVEWESNGQPENNYKTTPPVLDSDGSFFLYSRLTVDKSRWQEGNVFSCSVMHEALHNHYTQKSLSLSLGKMFWVLVVVGGVLACYSLLVTVAFIIFWVKRGRKKLLYIFKQPFMRPVQTTQEEDGCSCRFPEEEEGGCELRVKFSRSADAPAYQQGQNQLYNELNLGRREEYDVLDKRRGRDPEMGGKPRRKNPQEGLYNELQKDKMAEAYSEIGMKGERRRGKGHDGLYQGLSTATKDTYDALHMQALPPR
notes: Chimeric antigen receptor on the surface of Jurkat cells, Jurkat Nur77 reporter cells or primary T cells; also called BCMA-55-LS CAR; BCMA-55-L CAR

- binding result [2]: binds
B7: BCMA-26 anti-BCMA scFv (scFv)
scFv: EVQLVESGGGLVKPGGSLRLSCAASGFTFSDYYMSWIRQAPGKGLEWVSYISSSGSTIYYADSVKGRFTISRDNAKNSLYLQMNSLRAEDTAVYYCAKVDGPPSFDIWGQGTMVTVSSGGGGSGGGGSGGGGSSYVLTQPPSVSVAPGQTARITCGANNIGSKSVHWYQQKPGQAPMLVVYDDDDRPSGIPERFSGSNSGNTATLTISGVEAGDEADYFCHLWDRSRDHYVFGTGTKLTVL

Source: US20210393690A1 (JUNO THERAPEUTICS, published 2021)
